For this experiment, the target named is 6×His tag-AVI tag-DPP4 fusion protein, site-directed biotinylated and labeled with color latex throu (human), P27487. To be noted: remark: other sources report otherwise.

B1: Recombinant S1 protein of MERS-CoV, K9N5Q8 18-725 (ligand)
chain: YVDVGPDSVKSACIEVDIQQTFFDKTWPRPIDVSKADGIIYPQGRTYSNITITYQGLFPYQGDHGDMYVYSAGHATGTTPQKLFVANYSQDVKQFANGFVVRIGAAANSTGTVIISPSTSATIRKIYPAFMLGSSVGNFSDGKMGRFFNHTLVLLPDGCGTLLRAFYCILEPRSGNHCPAGNSYTSFATYHTPATDCSDGNYNRNASLNSFKEYFNLRNCTFMYTYNITEDEILEWFGITQTAQGVHLFSSRYVDLYGGNMFQFATLPVYDTIKYYSIIPHSIRSIQSDRKAWAAFYVYKLQPLTFLLDFSVDGYIRRAIDCGFNDLSQLHCSYESFDVESGVYSVSSFEAKPSGSVVEQAEGVECDFSPLLSGTPPQVYNFKRLVFTNCNYNLTKLLSLFSVNDFTCSQISPAAIASNCYSSLILDYFSYPLSMKSDLSVSSAGPISQFNYKQSFSNPTCLILATVPHNLTTITKPLKYSYINKCSRFLSDDRTEVPQLVNANQYSPCVSIVPSTVWEDGDYYRKQLSPLEGGGWLVASGSTVAMTEQLQMGFGITVQYGTDTNSVCPKLEFANDTKIASQLGNCVEYSLYGVSGRGVFQNCTAVGVRQQRFVYDAYQNLVGYYSDDGNYYCLRACVSVPVSVIYDKETKTHATLFGSVACEHISSTMSQYSRSTRSMLKRRDSTYGPLQTPVGCVLGLVNSSLFVE
The molecule B1 returned a sensitivity of the test strip (lowest positive concentration) of 10 nM.

The values above are taken from patent US20210301295A1.
